Data taken from doi:10.1101/2021.08.05.455261.
Where two headings read alike, the source gives them in different places.

Legend:
Assay in all cases: SEC
[1] = target: C-terminal domain homolog (CTDH) from Anabaena variabilis (Anabaena variabilis)
[2] = target: C-terminal domain homolog (CTDH) from Anabaena variabilis (Anabaena variabilis); remark: listed apart in the source
[3] = target: C-terminal domain homolog (CTDH) from Anabaena variabilis (Anabaena variabilis); remark: listed apart in the source
[4] = target: C-terminal domain homolog (CTDH) from Anabaena variabilis (Anabaena variabilis); remark: listed apart in the source

Measured: stoichiometry N

C-terminal domain homolog (CTDH) from Anabaena variabilis (natural protein)
2: all assays above
